From US20140221622A1

Biological target: biotin-labeled cMet (UniProt P08581)
Assay: indirect ELISA: antibody captured on anti-IgG Fc coated plate, biotin-labeled cMet detected with streptavidin-HRP, OD450; fit value of a flat control curve, unit taken from the axis

biotin-labeled cMet, sequence (P08581 25-932 limits assumed): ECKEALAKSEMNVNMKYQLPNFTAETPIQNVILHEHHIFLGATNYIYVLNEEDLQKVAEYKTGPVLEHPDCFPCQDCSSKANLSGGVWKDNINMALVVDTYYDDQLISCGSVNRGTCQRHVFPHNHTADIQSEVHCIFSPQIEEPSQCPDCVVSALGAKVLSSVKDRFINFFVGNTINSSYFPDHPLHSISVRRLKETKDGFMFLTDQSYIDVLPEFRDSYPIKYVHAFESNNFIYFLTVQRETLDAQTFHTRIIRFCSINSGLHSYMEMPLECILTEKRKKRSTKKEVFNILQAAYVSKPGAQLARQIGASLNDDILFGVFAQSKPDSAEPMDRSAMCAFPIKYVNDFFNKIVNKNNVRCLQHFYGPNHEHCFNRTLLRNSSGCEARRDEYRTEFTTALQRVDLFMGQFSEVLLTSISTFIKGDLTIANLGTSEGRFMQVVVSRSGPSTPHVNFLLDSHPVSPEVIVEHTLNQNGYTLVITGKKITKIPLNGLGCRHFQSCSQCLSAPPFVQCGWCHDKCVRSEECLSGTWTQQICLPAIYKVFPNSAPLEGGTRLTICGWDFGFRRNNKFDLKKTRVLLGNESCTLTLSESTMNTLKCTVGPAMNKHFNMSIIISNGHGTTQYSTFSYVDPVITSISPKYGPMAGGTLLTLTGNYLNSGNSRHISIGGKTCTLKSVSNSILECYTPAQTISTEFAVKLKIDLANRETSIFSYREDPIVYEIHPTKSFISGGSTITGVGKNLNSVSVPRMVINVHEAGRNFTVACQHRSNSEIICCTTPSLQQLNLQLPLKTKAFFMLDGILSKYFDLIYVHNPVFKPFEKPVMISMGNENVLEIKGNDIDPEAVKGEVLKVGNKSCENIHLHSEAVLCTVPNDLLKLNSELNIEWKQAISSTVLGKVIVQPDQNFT

IC50: 1.1 nM
Substance: IL-1β (antibody)
